Results: US20240166754A1 (SYNTHEKINE, published 2024)
Substitutions are numbered along the chain they refer to.

Experiments:
[1] = target: T1, extracellular domain of human IL12RB1 (hIL12Rb1 ECD antigen) (human, UniProt P42701 24-545); assay: periplasmic extract ELISA on antigen-coated plate after phage biopanning
T1 construct: also called IL12Rβ1; CD212
Experimental: (§1) Upon completion of the biopanning of Example 3, three 96-well plates of individual phage clones were isolated in order to perform periplasmic extract ELISA (PE-ELISA) on IL12Rb1 coated plates to identify positive VHH binders that selectively bound IL12Rb1. A 96-well plate was coated with IL12Rb1 and PBS under the same conditions. Next, wells were blocked at 37° ° C. for 1 h. Then, 100 μl of extracted antibodies was added to each well and incubated for 1 h. Subsequently, 100 μl of anti-tag polyclonal antibody conjugated to HRP was added to each well and incubated at 37 °C for 1 h. Plates were developed with TMB substrate. The reaction was stopped by the addition of H2SO4. Absorbance at 450 nm was read on a microtiter plate reader. Antibodies with absorbance of the antigen-coated well at least threefold greater than PBS-coated control are VHHs that specifically bind to IL12Rb1. Positive clones were sequenced, and sequences analyzed to identify unique clonotypes.

[2] = target: T2, extracellular domain of mouse IL12RB1 (mIL12Rb1 ECD antigen) (mouse, UniProt Q60837 20-565); assay: as above
T2 construct: also called murine IL12RB1
T2 sequence: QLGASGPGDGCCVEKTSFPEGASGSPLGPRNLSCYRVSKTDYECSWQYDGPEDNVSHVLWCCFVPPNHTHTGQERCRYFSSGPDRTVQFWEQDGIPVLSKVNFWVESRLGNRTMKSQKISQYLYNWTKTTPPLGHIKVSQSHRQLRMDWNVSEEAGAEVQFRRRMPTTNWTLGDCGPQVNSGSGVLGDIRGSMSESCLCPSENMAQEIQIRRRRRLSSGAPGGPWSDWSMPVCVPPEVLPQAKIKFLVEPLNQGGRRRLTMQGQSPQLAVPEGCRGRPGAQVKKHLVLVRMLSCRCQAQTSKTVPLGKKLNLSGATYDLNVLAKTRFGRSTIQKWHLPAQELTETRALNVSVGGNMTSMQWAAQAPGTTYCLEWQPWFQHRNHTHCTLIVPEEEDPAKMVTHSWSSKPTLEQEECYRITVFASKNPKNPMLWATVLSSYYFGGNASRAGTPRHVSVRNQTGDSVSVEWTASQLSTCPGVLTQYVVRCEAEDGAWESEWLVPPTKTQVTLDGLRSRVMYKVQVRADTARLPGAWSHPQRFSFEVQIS
Experimental: as §1

B1: hIL12Rb1_VHH1 (VHH)
VHH: QVQLQESGGGSVQAGGSLRLSCVASGYGYCGYDMSWYRQAPGKEREFVALITSDRSISYEDSVKARFIISRDNAANTGYLDMTRLTPDDTAIYYCKTSAAARESSWCRSRYRVASWGQGTQVTVSS
notes: Camel VHH
Does B1 bind [1]?
Result: binds

B2: hIL12Rb1_VHH10 (VHH)
VHH: QVQLQESGGGSVQAGGSLRLSCAVSGYDYCGYDVRWYRQAPGKEREFVSGIDSDGSTSYADSVKGRFTISQDNAENTSYLHMFSLKPEDTAMYYCKTESPAGESAWCRNFRGMDYWGKGTQVTVSS
notes: Camel VHH
Does B2 bind [1]?
Result: binds

B3: hIL12Rb1_VHH7 (VHH)
VHH: B2 VHH with Q39R
notes: Camel VHH
Does B3 bind [1]?
Result: binds

B4: hIL12Rb1_VHH14 (VHH)
VHH: B2 VHH with Q39R
notes: Camel VHH
Does B4 bind [1]?
Result: binds

B5: hIL12Rb1_VHH15 (VHH)
VHH: B2 VHH with D52N
notes: Camel VHH
Does B5 bind [1]?
Result: binds

B6: hIL12Rb1_VHH19 (VHH)
VHH: B2 VHH with D52N, S99G
notes: Camel VHH
Does B6 bind [1]?
Result: binds

B7: hIL12Rb1_VHH11 (VHH)
VHH: B2 VHH
notes: Camel VHH
Does B7 bind [1]?
Result: binds

B8: hIL12Rb1_VHH22 (VHH)
VHH: QVQLQESGGGSVQAGGSLRLSCTASGYTYSSAFMAWFRQAPGKEREGVAAIYTRDGGTVYADSVKGRFTISQDNAKNTLYLQMNSLKAEDTAMYYCAAKIPQPGRASLLDSQTYDYWGQGTQVTVSS
notes: Camel VHH
Does B8 bind [1]?
Result: binds

B9: hIL12Rb1_VHH2 (VHH)
VHH: B8 VHH with T78I
notes: Camel VHH
Does B9 bind [1]?
Result: binds

B10: hIL12Rb1_VHH12 (VHH)
VHH: B8 VHH with A88P, I100M
notes: Camel VHH
Does B10 bind [1]?
Result: binds

B11: hIL12Rb1_VHH16 (VHH)
VHH: B8 VHH with I51M, M83I, N84H, S85T
notes: Camel VHH
Does B11 bind [1]?
Result: binds

B12: hIL12Rb1_VHH20 (VHH)
VHH: B8 VHH with G57S, T58P, V64L, Y80H, A88P, Q102E, A106I, Q119H
notes: Camel VHH
Does B12 bind [1]?
Result: binds

B13: hIL12Rb1_VHH21 (VHH)
VHH: B8 VHH with I51M, A88T
notes: Camel VHH
Does B13 bind [1]?
Result: binds

B14: hIL12Rb1_VHH17 (VHH)
VHH: QVQLQESGGGSVQAGGFLRLSCVASGYGYCGYDMSWYRQVPGKEREFVALITSDRSVSYEDSVKGRFSISRDNAKNTAYLEMNRLTPDDTAIYYCKTSTAARENNWCRSRYRIASWGQGTQVTVSS
notes: Camel VHH
Does B14 bind [1]?
Result: binds

B15: hIL12Rb1_VHH4 (VHH)
VHH: B1 VHH with A40T, S56I, I57A, A65G, A75K, L85V, S104N
notes: Camel VHH
Does B15 bind [1]?
Result: binds

B16: hIL12Rb1_VHH5 (VHH)
VHH: B14 VHH with I92V, S115Y
notes: Camel VHH
Does B16 bind [1]?
Result: binds

B17: hIL12Rb1_VHH13 (VHH)
VHH: B1 VHH with S17F, D54E, S56V, A65G, I68S, A75E, D81E, T83N
notes: Camel VHH
Does B17 bind [1]?
Result: binds

B18: hIL12Rb1_VHH6 (VHH)
VHH: QVQLQESGGGSVQAGGSLRLSCAASRYTYTNNFMAWFRQAPGKEREGVAAIYTGDGYAYYFYSVKGRFTISQDNDENMLYLQMNSLKPEDTAMYYCAAMERRIGTRRMTENAEYKYWGQGTQVTVSS
notes: Camel VHH
Does B18 bind [1]?
Result: binds

B19: hIL12Rb1_VHH18 (VHH)
VHH: B18 VHH with Y62D, E76K, I103S, T105R
notes: Camel VHH
Does B19 bind [1]?
Result: binds

B20: mIL12Rb1_VHH4 (VHH)
VHH: B18 VHH with Y62D, E76K, I103S, T105R
notes: Camel VHH
Does B20 bind [2]?
Result: binds

B21: mIL12Rb1_VHH12 (VHH)
VHH: B18 VHH
notes: Camel VHH
Does B21 bind [2]?
Result: binds

B22: mIL12Rb1_VHH5 (VHH)
VHH: QVQLQESGGGSVQAGETLRLSCTVSGFTIDDSEMGWYRQAPGHECELVASGSSDDDTYYVDSVKGRFTISLDNAKNMVYLQMNSLKPEDTAVYYCATGPTYPPKDGDCAHWGQGTQVTVSS
notes: Camel VHH
Does B22 bind [2]?
Result: binds

B23: hIL12Rb1_VHH3 (VHH)
VHH: QVQLQESGGGSVQAGGSLRLSCVASGYSYCGYDMMWYRQAPGKEREFVALITSDYSIRYEDSVEGRFSISRDNAKNTGYLLMSNLTPADTAIYYCKTSTAARESSWCRSRYRVASWGQGTQVTVSS
notes: Camel VHH
Does B23 bind [1]?
Result: binds

B24: hIL12Rb1_VHH9 (VHH)
VHH: B23 VHH with S105G
notes: Camel VHH
Does B24 bind [1]?
Result: binds

B25: mIL12Rb1_VHH19 (VHH)
VHH: B14 VHH
notes: Camel VHH
Does B25 bind [2]?
Result: binds

B26: mIL12Rb1_VHH8 (VHH)
VHH: B1 VHH with S17F, D54E, S56V, A65G, I68S, A75E, D81E, T83N
notes: Camel VHH
Does B26 bind [2]?
Result: binds

B27: mIL12Rb1_VHH15 (VHH)
VHH: B14 VHH with I92V, S115Y
notes: Camel VHH
Does B27 bind [2]?
Result: binds

B28: mIL12Rb1_VHH20 (VHH)
VHH: B1 VHH with A40T, S56I, I57A, A65G, A75K, L85V, S104N
notes: Camel VHH
Does B28 bind [2]?
Result: binds

B29: mIL12Rb1_VHH9 (VHH)
VHH: B1 VHH
notes: Camel VHH
Does B29 bind [2]?
Result: binds

B30: mIL12Rb1_VHH10 (VHH)
VHH: B2 VHH
notes: Camel VHH
Does B30 bind [2]?
Result: binds

B31: mIL12Rb1_VHH11 (VHH)
VHH: B23 VHH
notes: Camel VHH
Does B31 bind [2]?
Result: binds

B32: hIL12Rb1_VHH8 (VHH)
VHH: B23 VHH
notes: Camel VHH
Does B32 bind [1]?
Result: binds
